From article PMC10393992 (Nature Communications, 2023)

Target: the molecule itself
Test: SEC; Superdex 75 10/300 GL; 20 mM NaCl, 25 mM HEPES, 0.2 mM 2-mercaptoethanol; size from a calibration curve of marker proteins

B1: His-CIP4-HR1 (domain or fragment, Mus musculus, UniProt Q8CJ53-3 339-425, looked up)
chain: PPEQQRKRLQQQLEERNRELQKEEDQREALKKMKDVYEKTPQMGDPASLEPRIAETLGNIERLKLEVQKYEAWLAEAESRVLSNRGD
notes: CIP4, Mus musculus, HR1, a.a; 339-425; numbers count on: UniProt Q8CJ53-3; also called homology region 1 of CIP4; source: E. coli BL21-CodonPlus (DE3)-RIL, purified (Ni-NTA agarose, dialysis)
Question: With B1 as the protein, how does the “stoichiometry N” value read?
Answer: The value was 2.
